We go through 14 molecules from paper PMC314469, “Protein Interaction Networks by Proteome Peptide Scanning” (PLoS Biology, 2004).

Test in all cases: SPOT array
In experiment [1] the target is T1, Rvs167 SH3 (RV167_YEAST), P39743.
T1 chain: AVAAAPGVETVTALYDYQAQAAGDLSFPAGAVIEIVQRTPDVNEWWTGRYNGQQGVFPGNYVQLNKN

Experiment [2] concerns the target T2, Yhr016c SH3 (YSC84_YEAST), P32793.
T2 chain: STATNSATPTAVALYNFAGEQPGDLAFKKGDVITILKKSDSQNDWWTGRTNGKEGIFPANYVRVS

In experiment [3] the target is T3, Boi2 SH3 (BOI2_YEAST), P39969.
T3 chain: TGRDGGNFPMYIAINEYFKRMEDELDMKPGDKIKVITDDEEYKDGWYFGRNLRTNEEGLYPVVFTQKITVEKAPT

The target of experiment [4] is T4, Yfr024 SH3 (LSB3_YEAST), P43603.
T4 chain: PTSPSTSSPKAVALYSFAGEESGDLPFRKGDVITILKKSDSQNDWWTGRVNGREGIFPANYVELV

Experiment [5] addresses Sho1 SH3 (SHO1_YEAST), P40073.
Experiment [6] addresses T5, Myo5 SH3 (MYO5_YEAST), Q04439.
T5 chain: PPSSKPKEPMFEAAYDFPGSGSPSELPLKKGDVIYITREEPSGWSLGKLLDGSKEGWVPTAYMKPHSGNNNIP

Experiment [7] deals with T6, Boi1 SH3 (BOI1_YEAST), P38041.
T6 chain: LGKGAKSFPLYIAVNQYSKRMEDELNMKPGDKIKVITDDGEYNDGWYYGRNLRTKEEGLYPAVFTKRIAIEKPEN

Chain of Sho1 SH3 (SHO1_YEAST), P40073 (P40073 295-366): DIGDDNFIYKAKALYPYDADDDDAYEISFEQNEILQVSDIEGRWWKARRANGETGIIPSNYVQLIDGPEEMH

B1: YBL088C 2501-2514 (peptide)
chain: IRTYKVVPLGPKAG
As for B1, the normalised SPOT signal, Boehringer light units (BLU); mean over the file's lines of this peptide is 38.5 in experiment [1]; 44.5 in experiment [2]; 38.8 in experiment [3]; 115 in experiment [4]; 61.2 in experiment [5]; 100 in experiment [6]. In experiment [7], the normalised SPOT signal, Boehringer light units (BLU); mean over the file's lines of this peptide was 146.

B2: YNL023C 312-325 (peptide)
chain: INGEKASPFLPSSL
As for B2, the normalised SPOT signal, Boehringer light units (BLU); mean over the file's lines of this peptide was found to be 50.3 in experiment [1]; 33.2 in experiment [2]; 23.2 in experiment [3]; 12.1 in experiment [4]; 19 in experiment [5]; 184 in experiment [6]. Further, in experiment [7], the normalised SPOT signal, Boehringer light units (BLU); mean over the file's lines of this peptide was 100.

B3: YHR102W 535-548 (peptide)
chain: INNNKMRPHLPPLS
Take B3: the normalised SPOT signal, Boehringer light units (BLU); mean over the file's lines of this peptide in experiment [1] is 1550; in experiment [2], 1230; in experiment [3], 646; in experiment [4], 4850; in experiment [5] it was 649; in experiment [6], 1000. In addition, the normalised SPOT signal, Boehringer light units (BLU); mean over the file's lines of this peptide in experiment [7] was 1310.

B4: YNR039C 117-130 (peptide)
chain: IPAPKLVPPPPRTR
For B4, the normalised SPOT signal, Boehringer light units (BLU); mean over the file's lines of this peptide came to 294 in experiment [1]; 167 in experiment [2]; 26.7 in experiment [3]; 3260 in experiment [4]; 99.1 in experiment [5]; 82300 in experiment [6]. The molecule also displayed a normalised SPOT signal, Boehringer light units (BLU); mean over the file's lines of this peptide in experiment [7] of 17300.

B5: YBR028C 374-387 (peptide)
chain: IQQNKQGPKIPFYL
For B5, the normalised SPOT signal, Boehringer light units (BLU); mean over the file's lines of this peptide was 23.5 in experiment [1]; 5 in experiment [2]; 12.3 in experiment [3]; 19 in experiment [4]; 19.8 in experiment [5]; 86.9 in experiment [6]. In experiment [7], this molecule showed a normalised SPOT signal, Boehringer light units (BLU); mean over the file's lines of this peptide of 107.

B6: YNL064C 352-365 (peptide)
chain: ILPPRIVPAIPKKA
With B6, the normalised SPOT signal, Boehringer light units (BLU); mean over the file's lines of this peptide was determined as 17600 in experiment [1]; 3210 in experiment [2]; 29 in experiment [3]; 3560 in experiment [4]; 38.5 in experiment [5]; 3670 in experiment [6]. Moreover, the normalised SPOT signal, Boehringer light units (BLU); mean over the file's lines of this peptide in experiment [7] is 227.

B7: YLR129W 367-380 (peptide)
chain: IPYEKRDPTSPAPL
As for B7, the normalised SPOT signal, Boehringer light units (BLU); mean over the file's lines of this peptide amounted to 58.4 in experiment [1]; 26.9 in experiment [2]; 7.7 in experiment [3]; 51.8 in experiment [4]; 29.3 in experiment [5]; 114 in experiment [6]. The molecule further came in with a normalised SPOT signal, Boehringer light units (BLU); mean over the file's lines of this peptide in experiment [7] of 43.8.

B8: YER132C 703-716 (peptide)
chain: ISHNKLSPSEPILS
For the molecule B8, the normalised SPOT signal, Boehringer light units (BLU); mean over the file's lines of this peptide was 48.3 in experiment [1]; 22.7 in experiment [2]; 34 in experiment [3]; 0 in experiment [4]; 19.4 in experiment [5]; 206 in experiment [6]. Besides, the normalised SPOT signal, Boehringer light units (BLU); mean over the file's lines of this peptide in experiment [7] worked out at 0.

B9: YLR290C 162-175 (peptide)
chain: ISADKGFPLIPSGY
Turning to B9, the normalised SPOT signal, Boehringer light units (BLU); mean over the file's lines of this peptide in experiment [1] is 32.4; in experiment [2], 14.4; in experiment [3] it was 16.8; in experiment [4], 38.2; in experiment [5], 32.9; in experiment [6], 113. The normalised SPOT signal, Boehringer light units (BLU); mean over the file's lines of this peptide in experiment [7] was 30.1.

B10: YDL202W 181-194 (peptide)
chain: INTFKTLPTKPEMQ
As for B10, the normalised SPOT signal, Boehringer light units (BLU); mean over the file's lines of this peptide in experiment [1] was determined as 73.4; in experiment [2] it was 14.5; in experiment [3] it was 11.5; in experiment [4] it was 110; in experiment [5] it was 14500; in experiment [6], 167. Further, the normalised SPOT signal, Boehringer light units (BLU); mean over the file's lines of this peptide in experiment [7] turned out to be 37.3.

B11: YHR014W 144-157 (peptide)
chain: INVEREAPMFPVPY
Regarding B11, the normalised SPOT signal, Boehringer light units (BLU); mean over the file's lines of this peptide in experiment [1] came out at 36.9; in experiment [2] it was 19.4; in experiment [3], 1.3; in experiment [4], 24.3; in experiment [5], 49.4; in experiment [6], 149. Also, the normalised SPOT signal, Boehringer light units (BLU); mean over the file's lines of this peptide in experiment [7] came out at 75.5.

B12: YKL182W 717-730 (peptide)
chain: INIAKAHPNFPIAL
For the molecule B12, the normalised SPOT signal, Boehringer light units (BLU); mean over the file's lines of this peptide in experiment [1] came to 10.4; in experiment [2], 2.8; in experiment [3], 20.4; in experiment [4], 0; in experiment [5], 42.9; in experiment [6], 196. Besides, in experiment [7], the normalised SPOT signal, Boehringer light units (BLU); mean over the file's lines of this peptide amounted to 53.5.

B13: YER164W 1330-1343 (peptide)
chain: INNTRLSPNSPTPP
In the case of B13, the normalised SPOT signal, Boehringer light units (BLU); mean over the file's lines of this peptide in experiment [1] came to 31.5; in experiment [2], 7.1; in experiment [3], 6.8; in experiment [4] it was 58.4; in experiment [5], 42.9; in experiment [6], 140. Moreover, the normalised SPOT signal, Boehringer light units (BLU); mean over the file's lines of this peptide in experiment [7] amounted to 58.4.

B14: YMR049C 642-655 (peptide)
chain: IMDAKFHPFKPQLF
With B14, the normalised SPOT signal, Boehringer light units (BLU); mean over the file's lines of this peptide in experiment [1] was found to be 213; in experiment [2], 84.6; in experiment [3] it was 42.4; in experiment [4] it was 813; in experiment [5], 94.3; in experiment [6] it was 246. In experiment [7], the normalised SPOT signal, Boehringer light units (BLU); mean over the file's lines of this peptide was found to be 121.
